# Laboratory results published in the supplement of paper PMC10065799, “High-throughput profiling of sequence recognition by tyrosine kinases and SH2 domains using bacterial peptide display” (eLife, 2023).
# Columns and labels:
# c-Src SH2 = test: SH2 binding enrichment of the phosphorylated peptide, bacterial display (enrichment ratio); higher = better substrate or ligand; peptides without Tyr show the background
# SHP2-C SH2 = test: as above
# Grb2 SH2 = Grb2 SH2 (UniProt P62993); test: as above
# Fer (mouse) = test: phosphorylation enrichment, bacterial display (enrichment ratio); higher = better substrate or ligand; peptides without Tyr show the background
# c-Src = test: as above
# Fes = Fes (UniProt P07332); test: as above
# MERTK = MERTK (UniProt Q12866); test: as above
# Chain of MERTK (Q12866 whole entry, looked up): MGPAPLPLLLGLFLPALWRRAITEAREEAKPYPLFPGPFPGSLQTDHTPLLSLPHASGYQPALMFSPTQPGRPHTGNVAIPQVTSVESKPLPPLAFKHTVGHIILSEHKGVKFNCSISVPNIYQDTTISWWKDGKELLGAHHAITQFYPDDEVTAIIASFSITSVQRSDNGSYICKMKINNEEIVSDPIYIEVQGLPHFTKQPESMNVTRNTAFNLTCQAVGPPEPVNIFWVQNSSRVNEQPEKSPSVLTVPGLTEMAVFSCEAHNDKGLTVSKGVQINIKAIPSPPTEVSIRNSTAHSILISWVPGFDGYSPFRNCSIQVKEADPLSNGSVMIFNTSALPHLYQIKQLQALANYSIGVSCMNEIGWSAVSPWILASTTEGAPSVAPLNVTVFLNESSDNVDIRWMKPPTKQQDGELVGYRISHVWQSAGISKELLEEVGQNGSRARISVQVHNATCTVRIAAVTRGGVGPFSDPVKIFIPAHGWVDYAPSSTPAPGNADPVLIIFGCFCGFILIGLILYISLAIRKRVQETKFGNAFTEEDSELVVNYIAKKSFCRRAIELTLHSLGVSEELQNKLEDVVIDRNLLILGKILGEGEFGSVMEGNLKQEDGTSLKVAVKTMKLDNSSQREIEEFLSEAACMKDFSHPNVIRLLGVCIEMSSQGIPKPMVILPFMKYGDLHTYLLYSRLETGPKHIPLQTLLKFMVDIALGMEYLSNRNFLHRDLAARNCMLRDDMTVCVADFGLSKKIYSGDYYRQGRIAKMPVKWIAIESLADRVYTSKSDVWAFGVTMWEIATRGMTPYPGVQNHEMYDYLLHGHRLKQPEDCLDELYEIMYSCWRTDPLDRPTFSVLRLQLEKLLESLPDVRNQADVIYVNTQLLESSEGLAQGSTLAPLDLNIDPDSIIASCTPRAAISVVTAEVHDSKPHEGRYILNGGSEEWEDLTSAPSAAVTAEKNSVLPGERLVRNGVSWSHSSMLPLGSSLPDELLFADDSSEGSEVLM
# EPHB1 = EPHB1 (UniProt P54762); test: as above
# Chain of EPHB1 (P54762 whole entry, looked up): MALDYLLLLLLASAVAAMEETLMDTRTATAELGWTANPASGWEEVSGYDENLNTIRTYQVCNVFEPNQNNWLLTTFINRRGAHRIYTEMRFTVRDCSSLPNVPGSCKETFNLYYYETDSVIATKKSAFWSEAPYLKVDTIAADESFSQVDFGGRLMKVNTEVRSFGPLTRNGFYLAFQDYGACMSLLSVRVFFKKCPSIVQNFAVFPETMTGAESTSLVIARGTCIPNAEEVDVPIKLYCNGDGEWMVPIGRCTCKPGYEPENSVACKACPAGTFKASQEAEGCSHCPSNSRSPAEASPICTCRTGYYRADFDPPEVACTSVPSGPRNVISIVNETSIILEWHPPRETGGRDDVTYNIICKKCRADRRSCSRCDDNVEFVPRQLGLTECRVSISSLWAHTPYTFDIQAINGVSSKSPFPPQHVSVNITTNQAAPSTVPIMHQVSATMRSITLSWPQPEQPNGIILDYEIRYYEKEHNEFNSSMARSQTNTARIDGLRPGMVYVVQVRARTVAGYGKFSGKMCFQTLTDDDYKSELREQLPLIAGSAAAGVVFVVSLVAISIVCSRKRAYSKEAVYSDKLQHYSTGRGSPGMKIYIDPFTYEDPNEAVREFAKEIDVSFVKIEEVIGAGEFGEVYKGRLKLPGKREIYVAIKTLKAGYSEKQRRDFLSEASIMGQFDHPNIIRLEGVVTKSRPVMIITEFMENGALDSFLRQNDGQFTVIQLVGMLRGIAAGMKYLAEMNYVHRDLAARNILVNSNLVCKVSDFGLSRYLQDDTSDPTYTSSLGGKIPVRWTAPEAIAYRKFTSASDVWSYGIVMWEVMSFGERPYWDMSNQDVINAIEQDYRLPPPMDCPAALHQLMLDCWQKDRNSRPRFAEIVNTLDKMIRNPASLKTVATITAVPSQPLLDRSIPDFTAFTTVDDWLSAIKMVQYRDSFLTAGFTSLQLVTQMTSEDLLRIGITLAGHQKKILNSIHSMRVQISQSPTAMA
# FGFR3 = FGFR3 (UniProt P22607); test: as above
# Fyn = Fyn (UniProt P06241); test: as above
# Chain of Fyn (P06241 whole entry, looked up): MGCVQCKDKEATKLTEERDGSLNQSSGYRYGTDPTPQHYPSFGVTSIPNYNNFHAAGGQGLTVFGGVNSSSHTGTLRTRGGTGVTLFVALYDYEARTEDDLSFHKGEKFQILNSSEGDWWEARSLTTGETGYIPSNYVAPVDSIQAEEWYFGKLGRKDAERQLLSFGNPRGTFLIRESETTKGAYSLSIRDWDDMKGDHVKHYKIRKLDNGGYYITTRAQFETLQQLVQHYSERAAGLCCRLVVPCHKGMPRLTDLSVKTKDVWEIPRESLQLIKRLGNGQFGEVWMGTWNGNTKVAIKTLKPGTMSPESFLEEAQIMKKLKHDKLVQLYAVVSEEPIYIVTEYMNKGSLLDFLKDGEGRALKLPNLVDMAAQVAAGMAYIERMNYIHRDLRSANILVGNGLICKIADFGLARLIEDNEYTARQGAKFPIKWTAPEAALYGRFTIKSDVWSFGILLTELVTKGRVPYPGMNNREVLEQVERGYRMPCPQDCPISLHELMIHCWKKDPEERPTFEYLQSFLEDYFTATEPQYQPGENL
# EPHB2 = EPHB2 (UniProt P29323); test: as above
# AncSZ = test: as above
# Hck = Hck (UniProt P08631); test: as above
# Chain of Hck (P08631 whole entry, looked up): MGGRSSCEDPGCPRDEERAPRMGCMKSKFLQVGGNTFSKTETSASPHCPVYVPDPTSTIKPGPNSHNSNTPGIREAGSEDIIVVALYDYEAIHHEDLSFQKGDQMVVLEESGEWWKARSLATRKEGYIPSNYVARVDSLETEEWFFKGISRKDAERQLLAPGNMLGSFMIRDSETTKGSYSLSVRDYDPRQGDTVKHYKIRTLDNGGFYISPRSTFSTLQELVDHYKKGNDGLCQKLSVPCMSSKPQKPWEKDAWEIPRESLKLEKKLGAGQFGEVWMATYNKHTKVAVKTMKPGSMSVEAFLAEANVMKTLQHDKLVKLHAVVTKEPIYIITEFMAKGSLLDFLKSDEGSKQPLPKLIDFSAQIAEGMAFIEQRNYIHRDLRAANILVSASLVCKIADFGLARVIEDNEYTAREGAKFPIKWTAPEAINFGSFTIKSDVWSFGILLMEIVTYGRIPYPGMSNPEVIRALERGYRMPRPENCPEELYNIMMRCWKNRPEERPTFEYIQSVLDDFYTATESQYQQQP
# c-Abl (mouse) = test: as above
# Jak2 = Jak2 (UniProt O60674); test: as above
# Chain of Jak2 (O60674 whole entry, looked up): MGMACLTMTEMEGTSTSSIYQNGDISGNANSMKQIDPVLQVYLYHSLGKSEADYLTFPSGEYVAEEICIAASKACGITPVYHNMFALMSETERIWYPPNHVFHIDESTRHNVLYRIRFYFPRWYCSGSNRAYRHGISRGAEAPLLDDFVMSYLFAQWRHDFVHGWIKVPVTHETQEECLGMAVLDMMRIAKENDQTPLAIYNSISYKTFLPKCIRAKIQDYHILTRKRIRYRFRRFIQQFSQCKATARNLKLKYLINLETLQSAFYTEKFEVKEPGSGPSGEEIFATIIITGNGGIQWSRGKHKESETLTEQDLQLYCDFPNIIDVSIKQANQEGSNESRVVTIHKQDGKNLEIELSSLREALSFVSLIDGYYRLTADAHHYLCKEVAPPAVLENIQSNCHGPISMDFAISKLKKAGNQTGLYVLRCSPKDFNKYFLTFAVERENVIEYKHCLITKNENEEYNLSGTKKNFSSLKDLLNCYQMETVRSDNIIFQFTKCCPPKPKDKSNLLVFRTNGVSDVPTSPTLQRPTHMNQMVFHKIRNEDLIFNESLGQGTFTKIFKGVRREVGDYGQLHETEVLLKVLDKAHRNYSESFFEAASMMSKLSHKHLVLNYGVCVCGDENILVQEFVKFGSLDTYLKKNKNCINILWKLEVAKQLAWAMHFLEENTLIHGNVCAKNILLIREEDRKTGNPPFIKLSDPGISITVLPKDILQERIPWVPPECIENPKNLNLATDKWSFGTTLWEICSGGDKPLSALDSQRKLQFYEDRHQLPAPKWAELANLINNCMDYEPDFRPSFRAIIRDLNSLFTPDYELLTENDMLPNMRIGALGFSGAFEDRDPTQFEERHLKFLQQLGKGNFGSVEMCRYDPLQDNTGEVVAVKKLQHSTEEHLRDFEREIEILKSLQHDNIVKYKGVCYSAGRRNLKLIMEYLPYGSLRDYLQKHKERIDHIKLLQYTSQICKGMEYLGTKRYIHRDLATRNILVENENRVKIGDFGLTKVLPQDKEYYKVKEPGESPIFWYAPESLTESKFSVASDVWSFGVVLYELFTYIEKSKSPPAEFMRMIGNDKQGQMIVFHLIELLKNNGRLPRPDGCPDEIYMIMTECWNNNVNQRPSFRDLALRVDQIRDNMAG
# FGFR1 = FGFR1 (UniProt P11362); test: as above
# Chain of FGFR1 (P11362 whole entry, looked up, the tested form may be a part): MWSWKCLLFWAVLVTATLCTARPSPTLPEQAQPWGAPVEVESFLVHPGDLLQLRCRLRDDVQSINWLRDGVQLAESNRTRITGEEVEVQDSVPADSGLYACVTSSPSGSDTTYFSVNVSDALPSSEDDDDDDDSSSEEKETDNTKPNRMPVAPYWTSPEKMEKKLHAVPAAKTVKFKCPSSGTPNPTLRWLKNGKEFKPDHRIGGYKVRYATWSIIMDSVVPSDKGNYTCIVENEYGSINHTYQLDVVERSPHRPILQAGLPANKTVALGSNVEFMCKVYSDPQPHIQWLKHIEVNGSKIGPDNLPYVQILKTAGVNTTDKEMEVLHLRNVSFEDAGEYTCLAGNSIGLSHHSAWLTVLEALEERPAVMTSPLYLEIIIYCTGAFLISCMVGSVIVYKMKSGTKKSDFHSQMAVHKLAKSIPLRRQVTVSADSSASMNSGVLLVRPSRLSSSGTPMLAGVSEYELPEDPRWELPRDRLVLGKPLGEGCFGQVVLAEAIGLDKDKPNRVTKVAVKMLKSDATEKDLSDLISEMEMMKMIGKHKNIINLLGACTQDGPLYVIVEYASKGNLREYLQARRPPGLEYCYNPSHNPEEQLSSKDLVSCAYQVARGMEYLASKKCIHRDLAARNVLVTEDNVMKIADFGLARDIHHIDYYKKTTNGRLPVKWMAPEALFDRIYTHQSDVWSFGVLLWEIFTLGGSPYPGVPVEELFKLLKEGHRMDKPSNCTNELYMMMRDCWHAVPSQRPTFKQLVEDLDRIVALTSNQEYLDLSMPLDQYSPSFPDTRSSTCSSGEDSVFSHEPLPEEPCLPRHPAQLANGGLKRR
# 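Wherever SH2 binding enrichment of the phosphorylated peptide, bacterial display is given: peptide library displayed on the E. coli surface as eCPX fusions, selected cells deep-sequenced, score is each peptide's frequency after selection divided by its frequency in the input.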
# 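Wherever phosphorylation enrichment, bacterial display is given: 11-residue human phosphosite peptides and single-mutation variants displayed on the E. coli surface, counted by deep sequencing, each peptide's frequency after selection divided by its frequency in the unselected input library; frequency after pTyr selection over input frequency; kinase dosed for 20-30% of maximal phosphorylation in three min.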
SH2 binding enrichment (c-Src SH2),SH2 binding enrichment (SHP2-C SH2),SH2 binding enrichment (Grb2 SH2),Sequence,phosphorylation enrichment (Fer (mouse)),phosphorylation enrichment (c-Src),phosphorylation enrichment (Fes),phosphorylation enrichment (MERTK),phosphorylation enrichment (EPHB1),phosphorylation enrichment (FGFR3),phosphorylation enrichment (Fyn),phosphorylation enrichment (EPHB2),phosphorylation enrichment (AncSZ),phosphorylation enrichment (Hck),phosphorylation enrichment (c-Abl (mouse)),phosphorylation enrichment (Jak2),phosphorylation enrichment (FGFR1)
1.07,0.631,0.763,SQAPGYSYTAA [CYCS_Y47_G42S],0.499,0.594,0.666,0.45,0.466,0.43,0.454,0.408,0.637,0.422,0.708,0.765,0.593
3.42,4.37,1.18,YVSLIYTNYEA [GSTP1_Y109_I105V],3.36,4.34,1.36,4.74,3.04,5.46,5.04,2.87,1.84,3.62,1.87,1.32,6.43
2.71,0.755,1.08,KLKNAYEECLE [MYH7_Y1488_S1491C],0.615,0.502,1.16,0.432,0.501,0.739,0.438,0.554,1.15,0.642,0.799,0.984,0.508
0.438,0.503,0.834,RELGKYGLQAF [ALDH2_Y497_E496K_YF],0.537,0.491,0.926,0.612,0.489,0.582,0.526,0.577,1,0.584,0.786,0.774,0.578
0.564,0.777,0.763,IPQEEYKATGL,0.531,0.535,1.18,0.492,0.706,0.677,0.497,0.635,0.84,0.631,0.776,0.93,0.527
0.576,0.759,0.977,DASENYFVTDS [TMEM240_Y77],0.517,0.492,1.23,0.516,1.44,1.44,0.444,0.886,1.41,0.659,0.86,1.37,1.35
0.537,0.68,0.826,NDFGNYNNQSS [HNRNPA1_Y318],0.322,0.343,0.695,0.285,0.392,0.419,0.333,0.352,0.523,0.417,0.874,0.49,0.417
0.657,1.14,0.787,FQGGTYSKAST [FGG_Y380_YF],0.325,0.41,0.544,0.46,0.377,0.413,0.372,0.452,0.448,0.308,0.446,0.478,0.495
